In assay [1] the target is VH27/T75I/A89V-Fc. Put plainly: BLI; biotinylated ENPP1-Fc antigen loaded on streptavidin biosensors, blocked with 5 uM biotin; binder in solution, 600 s association, 900 s dissociation; TBS, 0.02% TWEEN-20, 0.2% BSA, 200 uM zinc chloride, 2 mM calcium chloride, 75 mM sodium chloride; 1:1 monovalent binding model. Particulars: both partners purified. In general terms: Biolayer interferometry detects binding as a change in optical thickness at a sensor tip.

The target in assay [2] is VH27.2-Fc Y102A. Described as above. Particulars: both partners purified.
Assay [3] concerns the target VH27.2-Fc W104F. Described as above. To be noted: both partners purified.
The target of assay [4] is bi-paratopic VH27.2/VH31 inhibitor (tetravalent Fc). In words: flow cytometry on cells; MDA-MB-231 cells stained with a titration of binder, 1 hr at 4°C in PBS with 3% BSA; ProtA-647 secondary; EC50 from median fluorescence intensity, sigmoidal 4PL fit. Particulars: one partner purified. A general note: In flow cytometry, cells or beads pass a laser one at a time.

B1: T256A ENPP1-Fc (human ENPP1 ectodomain, ΔSMB, T256A, C-terminal Fc fusion with AviTag, biotinylated) (Fc fusion)
chain: GEKSWVEEPCESINEPQCPAGFETPPTLLFSLDGFRAEYLHTWGGLLPVISKLKKCGTYTKNMRPVYPTKAFPNHYSIVTGLYPESHGIIDNKMYDPKMNASFSLKSKEKFNPEWYKGEPIWVTAKYQGLKSGTFFWPGSDVEINGIFPDIYKMYNGSVPFEERILAVLQWLQLPKDERPHFYTLYLEEPDSSGHSYGPVSSEVIKALQRVDGMVGMLMDGLKELNLHRCLNLILISDHGMEQGSCKKYIYLNKYLGDVKNIKVIYGPAARLRPSDVPDKYYSFNYEGIARNLSCREPNQHFKPYLKHFLPKRLHFAKSDRIEPLTFYLDPQWQLALNPSERKYCGSGFHGSDNVFSNMQALFVGYGPGFKHGIEADTFENIEVYNLMCDLLNLTPAPNNGTHGSLNHLLKNPVYTPKHPKEVHPLVQCPFTRNPRDNLGCSCNPSILPIEDFQTQFNLTVAEEKIIKHETLPYGRPRVLQKENTICLLSQHQFMSGYSQDILMPLWTSYTVDRNDSFSTEDFSNCLYQDFRIPLSPVHKCSFYKNNTKVSYGFLSPPQLNKNSSGIYSEALLTTNIVPMYQSFQVIWRYFHDTLLRKYAEERNGVNVVSGPVFDFDYDGRCDSLENLRQKRRVIRNQEILIPTHFFIVLTSCKDTSQTPLHCENLDTLAFILPHRTDNSESCVHGKHDSSWVEELLMLHRARITDVEHITGLSFYQQRKEPVSDILKLKTHLPTFSQED
modifications: biotin on the AviTag
For the molecule B1, the Kd – broadly, the equilibrium constant for the complex coming apart – in assay [1] was 0.7 nM; in assay [2], 111 nM; in assay [3], 14.2 nM.

B2: native ENPP1 on the cell membrane (natural protein, UniProt P22413 1-925, looked up)
chain: MERDGCAGGGSRGGEGGRAPREGPAGNGRDRGRSHAAEAPGDPQAAASLLAPMDVGEEPLEKAARARTAKDPNTYKVLSLVLSVCVLTTILGCIFGLKPSCAKEVKSCKGRCFERTFGNCRCDAACVELGNCCLDYQETCIEPEHIWTCNKFRCGEKRLTRSLCACSDDCKDKGDCCINYSSVCQGEKSWVEEPCESINEPQCPAGFETPPTLLFSLDGFRAEYLHTWGGLLPVISKLKKCGTYTKNMRPVYPTKTFPNHYSIVTGLYPESHGIIDNKMYDPKMNASFSLKSKEKFNPEWYKGEPIWVTAKYQGLKSGTFFWPGSDVEINGIFPDIYKMYNGSVPFEERILAVLQWLQLPKDERPHFYTLYLEEPDSSGHSYGPVSSEVIKALQRVDGMVGMLMDGLKELNLHRCLNLILISDHGMEQGSCKKYIYLNKYLGDVKNIKVIYGPAARLRPSDVPDKYYSFNYEGIARNLSCREPNQHFKPYLKHFLPKRLHFAKSDRIEPLTFYLDPQWQLALNPSERKYCGSGFHGSDNVFSNMQALFVGYGPGFKHGIEADTFENIEVYNLMCDLLNLTPAPNNGTHGSLNHLLKNPVYTPKHPKEVHPLVQCPFTRNPRDNLGCSCNPSILPIEDFQTQFNLTVAEEKIIKHETLPYGRPRVLQKENTICLLSQHQFMSGYSQDILMPLWTSYTVDRNDSFSTEDFSNCLYQDFRIPLSPVHKCSFYKNNTKVSYGFLSPPQLNKNSSGIYSEALLTTNIVPMYQSFQVIWRYFHDTLLRKYAEERNGVNVVSGPVFDFDYDGRCDSLENLRQKRRVIRNQEILIPTHFFIVLTSCKDTSQTPLHCENLDTLAFILPHRTDNSESCVHGKHDSSWVEELLMLHRARITDVEHITGLSFYQQRKEPVSDILKLKTHLPTFSQED
As to B2, the binding result in assay [4] was “binds”.

Source of the values: paper PMC10746542 (Nature chemical biology, 2023).
